Experimental data published in patent US6835807B1, “Drug complex and drug delivery system” (Daiichi Pharmaceuticals Co., Ltd., priority 1998, dated 2004).
Marks after values point to notes of the source that are not given here.

Key:
Meth A cells = assay: Antineoplastic activity of the complexes of Examples 1, 5 and 6 (Example 10); assay type: in vivo, BALB/c mice; conditions: for IR, diminution rate of the tumor: 21th day; for Average tumor weight: tumor weighed on the 21th day
Description: Meth A cells were transplanted into BALB/c mice to prepare Meth A tumor-bearing mice. On the 7th day after the transplantation, the drug complexes shown in Examples 1, 5 and 6 were singly administered, respectively. The weight of the tumor was measured on the 21th day to evaluate the inhibitory activity on the tumor and the toxicity. In the table, * represents significance in Dunnet's test (*** p<0.001, ** P<0.01, * P<0.05), the dose is expressed in terms of the weight of anhydrous free base of DX-8951, and IR represents the diminution rate of the tumor.

[1] = Release of the drug compound from the drug complex in buffer (Example 8); assay type: physicochemical; conditions: for released amount of the drug (DX-8951), percentage of the drug in the drug complex used: 37° C., 50 μg/ml, after 20 hours
Description: (§1) (50 μg/ml). […] The released amount of the drug is expressed in percentage of the released amount of the drug to the amount of the drug in the drug complex used.

[2] = Release of the drug compound from the drug complex in plasma (Example 8); assay type: in vitro ADME; conditions: 37° C., 50 μg/ml, after 20 hours
Description: as §1

[3] = Release of the drug compound from the drug complex in Meth A homogenate (Example 8); assay type: in vitro ADME, murine; conditions: for released amount of the drug (DX-8951), percentage of the drug in the drug complex used: 37° C., 50 μg/ml, after 20 hours
Description: as §1

[4] = test system: Meth A tumor-bearing mice; assay: Maximum tolerated dose of the drug complexes of Examples 5, 6 and 7 (Example 9); assay type: in vivo, BALB/c mice; conditions: for BWLmax, maximum body-weight reduction rate / N, mice died/mice used / day when the maximum body-weight reduction was observed: single administration on the 13th day
Description: Meth A cells were transplanted into BALB/c mice to prepare Meth A tumor-bearing mice. On the 13th day, the drug complexes obtained in Examples 5, 6 and 7 were singly administered. After the administration, measurement of the body weight and observation of toxic death were made with time, and the maximum body-weight reduction rate and mortality were calculated, which are shown in Table 5. The dose is expressed in terms of the weight of anhydrous free base of DX-8951.
On the basis of the dose in which body weight reduction and death were observed, MTD of each complex were judged as follows.

[5] = 0.15625 mg/kg, singly administered on the 7th day
[6] = 0.3125 mg/kg, singly administered on the 7th day
[7] = 0.625 mg/kg, singly administered on the 7th day
[8] = 1.25 mg/kg, singly administered on the 7th day
[9] = 1.875 mg/kg, singly administered on the 7th day

With “Carboxymethyldextran polyalcohol-Gly-Gly-Phe-Gly-NH-p-C 6H4—CH2—O—CO-DX-8951 [Example 5]” the “BWLmax, maximum body-weight reduction rate” value (Meth A cells; [5]) was less than 0%, the “N, mice died/mice used” value (Meth A cells; [5]) was 0/6 and the “IR, diminution rate of the tumor” value (Meth A cells; [5]) was 9%. The Average tumor weight (Meth A cells; [5]) was 2.394 ± 0.231 g, the “BWLmax, maximum body-weight reduction rate” value (Meth A cells; [6]) was less than 0% and the “N, mice died/mice used” value (Meth A cells; [6]) was 0/6. For the same substance, the “IR, diminution rate of the tumor” value (Meth A cells; [6]) was 57%, the Average tumor weight (Meth A cells; [6]) was 1.128 ± 0.173*** g and the “BWLmax, maximum body-weight reduction rate” value (Meth A cells; [7]) was less than 0%. For the same substance, the “N, mice died/mice used” value (Meth A cells; [7]) was 0/6, the “IR, diminution rate of the tumor” value (Meth A cells; [7]) was 88% and the Average tumor weight (Meth A cells; [7]) was 0.328 ± 0.164*** g. The “BWLmax, maximum body-weight reduction rate” value (Meth A cells; [8]) was less than 0%, the “N, mice died/mice used” value (Meth A cells; [8]) was 0/6 and the “IR, diminution rate of the tumor” value (Meth A cells; [8]) was 100%. The Average tumor weight (Meth A cells; [8]) was 0.010 ± 0.004*** g, the “BWLmax, maximum body-weight reduction rate” value (Meth A cells; [9]) was 12.3% and the “N, mice died/mice used” value (Meth A cells; [9]) was 0/6. The “day when the maximum body-weight reduction was observed” value (Meth A cells; [9]) was 13 days, the “IR, diminution rate of the tumor” value (Meth A cells; [9]) was 100% and the Average tumor weight (Meth A cells; [9]) was 0.011 ± 0.003*** g. The “minimal effective dose relative to that of the drug complex shown in Example 1” value (Meth A cells; Meth A tumor-bearing mice) was “about ⅓”, the “released amount of the drug (DX-8951), percentage of the drug in the drug complex used” value ([1]; Buffer (pH 4.5)) was 0.79% and the “released amount of the drug (DX-8951), percentage of the drug in the drug complex used” value ([1]; Buffer (pH 5.5)) was 0.71%. The “released amount of the drug (DX-8951), percentage of the drug in the drug complex used” value ([1]; Buffer (pH 6.5)) was 0.8%, the “release of the drug in words” value ([1]; buffer) was “hardly released” and the “released amount of the drug (DX-8951), percentage of the drug in the drug complex used” value [2] was 0.13%. For the same substance, the “released amount of the drug (DX-8951), percentage of the drug in the drug complex used” value ([3]; Meth A homogenate (pH 4.5)) was 110.69%, the “released amount of the drug (DX-8951), percentage of the drug in the drug complex used” value ([3]; Meth A homogenate (pH 5.5)) was 110.31% and the “released amount of the drug (DX-8951), percentage of the drug in the drug complex used” value ([3]; Meth A homogenate (pH 6.5)) was 42.71%. For the same substance, the “release of the drug in words” value ([3]; weakly acidic homogenate) was “rapidly released”, the “BWLmax, maximum body-weight reduction rate” value ([4]; 0.625 mg/kg) was 2.0% and the “N, mice died/mice used” value ([4]; 0.625 mg/kg) was 0/3. The “day when the maximum body-weight reduction was observed” value ([4]; 0.625 mg/kg) was 14 days, the “BWLmax, maximum body-weight reduction rate” value ([4]; 1.25 mg/kg) was 5.0% and the “N, mice died/mice used” value ([4]; 1.25 mg/kg) was 0/3. The “day when the maximum body-weight reduction was observed” value ([4]; 1.25 mg/kg) was 18 days, the “BWLmax, maximum body-weight reduction rate” value ([4]; 5 mg/kg) was 28.6% and the “N, mice died/mice used” value ([4]; 5 mg/kg) was 3/3. The “day when the maximum body-weight reduction was observed” value ([4]; 5 mg/kg) was 18 days, the “BWLmax, maximum body-weight reduction rate” value ([4]; 10 mg/kg) was 27.1% and the “N, mice died/mice used” value ([4]; 10 mg/kg) was 3/3. For the same substance, the “day when the maximum body-weight reduction was observed” value ([4]; 10 mg/kg) was 18 days, the “MTD relative to MTD of the drug complex obtained in Example 1” value ([4]; Meth A tumor-bearing mice) was “about ⅓” and the “N, mice died/mice used” value ([4]; […]) was 3/3.
